One series deals with T1, dHEXIM WT (Drosophila, UniProt Q7K4N7 1-349).
T1 sequence: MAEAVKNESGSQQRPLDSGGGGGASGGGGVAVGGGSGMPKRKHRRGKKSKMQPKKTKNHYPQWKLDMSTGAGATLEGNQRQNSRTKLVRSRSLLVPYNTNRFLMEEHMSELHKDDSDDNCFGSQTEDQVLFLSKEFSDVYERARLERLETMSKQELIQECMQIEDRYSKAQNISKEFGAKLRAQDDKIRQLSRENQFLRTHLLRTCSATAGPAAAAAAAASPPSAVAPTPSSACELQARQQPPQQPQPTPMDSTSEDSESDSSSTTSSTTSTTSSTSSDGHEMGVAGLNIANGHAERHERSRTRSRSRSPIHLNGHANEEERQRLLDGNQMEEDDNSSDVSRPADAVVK
As to the kind of experiment: EMSA.

The target in a further series is T2, dHEXIM ILAA (Drosophila, UniProt Q7K4N7 1-349, K42I;H43L;R44A;R45A).
T2 sequence: T1 sequence with K42I, H43L, R44A, R45A
As to the kind of experiment: EMSA.

Changes are numbered by the printed parent chain.

B1: dsRNA oligo (TTF2 25-mer) (dsRNA)
RNA 1: CAAGCAAGAGGCAGAGAUCCCAGGU
RNA 2: ACCUGGGAUCUCUGCCUCUUGCUUG
With B1, the binding result with dHEXIM WT is “binds”; in the series with dHEXIM ILAA, “no binding”.

The record behind these values is article PMC3384314.
